In US11666658B2, “Rifamycin analogs and antibody-drug conjugates thereof” (Regeneron Pharmaceuticals, Inc., priority 2018, dated 2023):

T1: Ox-LDL binding to His9-hMSR1 (Homo sapiens, UniProt P21757)
T1 construct: human MSR1 extracellular domain expressed with a N-terminal nonahistidine tag; purchased R&D Systems 2708-MS
T1 sequence (P21757 77-451 limits assumed): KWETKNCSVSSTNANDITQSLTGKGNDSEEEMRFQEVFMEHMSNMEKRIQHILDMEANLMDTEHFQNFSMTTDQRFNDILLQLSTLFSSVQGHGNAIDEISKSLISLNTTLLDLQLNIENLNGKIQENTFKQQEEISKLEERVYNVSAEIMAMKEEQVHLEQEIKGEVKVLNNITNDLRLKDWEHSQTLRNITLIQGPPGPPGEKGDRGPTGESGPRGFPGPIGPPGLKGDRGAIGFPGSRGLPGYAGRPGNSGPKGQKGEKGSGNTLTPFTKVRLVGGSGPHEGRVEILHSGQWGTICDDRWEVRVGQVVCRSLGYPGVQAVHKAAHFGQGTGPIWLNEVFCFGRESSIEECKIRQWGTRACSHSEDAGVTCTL

T2: Ac-LDL binding to His9-hMSR1 (Homo sapiens, UniProt P21757)
T2 construct: human MSR1 extracellular domain expressed with a N-terminal nonahistidine tag; purchased R&D Systems 2708-MS
T2 sequence (P21757 77-451 limits assumed): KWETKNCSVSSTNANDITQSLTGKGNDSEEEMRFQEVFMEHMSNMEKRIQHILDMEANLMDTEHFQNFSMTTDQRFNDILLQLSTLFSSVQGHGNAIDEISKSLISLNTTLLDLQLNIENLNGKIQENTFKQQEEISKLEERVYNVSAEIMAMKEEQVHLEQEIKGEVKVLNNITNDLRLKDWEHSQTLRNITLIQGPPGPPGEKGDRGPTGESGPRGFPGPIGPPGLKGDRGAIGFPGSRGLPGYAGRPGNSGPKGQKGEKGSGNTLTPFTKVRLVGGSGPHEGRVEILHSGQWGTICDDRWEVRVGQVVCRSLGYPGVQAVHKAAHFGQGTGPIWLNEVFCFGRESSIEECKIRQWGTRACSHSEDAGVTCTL

T3: biot-AGE-BSA binding to His9-hMSR1 (Homo sapiens, UniProt P21757)
T3 construct: human MSR1 extracellular domain expressed with a N-terminal nonahistidine tag; purchased R&D Systems 2708-MS
T3 sequence (P21757 77-451 limits assumed): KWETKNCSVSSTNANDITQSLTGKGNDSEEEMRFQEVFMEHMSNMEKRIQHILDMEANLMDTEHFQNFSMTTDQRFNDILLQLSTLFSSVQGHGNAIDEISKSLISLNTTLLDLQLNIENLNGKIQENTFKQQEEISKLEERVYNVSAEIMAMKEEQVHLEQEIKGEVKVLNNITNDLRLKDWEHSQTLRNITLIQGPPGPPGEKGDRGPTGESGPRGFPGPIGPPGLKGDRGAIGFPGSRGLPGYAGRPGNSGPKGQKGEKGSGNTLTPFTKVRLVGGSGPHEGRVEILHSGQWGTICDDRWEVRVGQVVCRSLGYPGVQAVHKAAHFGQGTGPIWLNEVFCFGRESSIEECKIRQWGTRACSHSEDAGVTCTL

T4: His9-hMSR1 (Homo sapiens, UniProt P21757)
T4 construct: human MSR1 extracellular domain expressed with a N-terminal nonahistidine tag; purchased R&D Systems 2708-MS
T4 sequence (P21757 77-451 limits assumed): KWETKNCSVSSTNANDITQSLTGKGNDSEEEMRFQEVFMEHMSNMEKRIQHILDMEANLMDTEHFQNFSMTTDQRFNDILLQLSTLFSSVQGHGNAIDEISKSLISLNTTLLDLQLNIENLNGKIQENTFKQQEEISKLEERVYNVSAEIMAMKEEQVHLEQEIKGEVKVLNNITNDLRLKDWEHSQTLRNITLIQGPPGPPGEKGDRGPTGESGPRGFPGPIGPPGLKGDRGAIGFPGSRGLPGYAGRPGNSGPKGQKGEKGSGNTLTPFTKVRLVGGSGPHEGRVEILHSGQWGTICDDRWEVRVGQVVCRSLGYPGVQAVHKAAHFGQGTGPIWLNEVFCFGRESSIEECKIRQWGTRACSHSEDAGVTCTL

T5: MSR1-mediated DiI-OxLDL uptake in HEK293.Myc.hMSR1 cells (Homo sapiens, UniProt P21757)
T5 construct: expressed in transfected cells; host or cells: HEK293 (lentiviral transduction, hygromycin selection)
T5 sequence (P21757 1-451): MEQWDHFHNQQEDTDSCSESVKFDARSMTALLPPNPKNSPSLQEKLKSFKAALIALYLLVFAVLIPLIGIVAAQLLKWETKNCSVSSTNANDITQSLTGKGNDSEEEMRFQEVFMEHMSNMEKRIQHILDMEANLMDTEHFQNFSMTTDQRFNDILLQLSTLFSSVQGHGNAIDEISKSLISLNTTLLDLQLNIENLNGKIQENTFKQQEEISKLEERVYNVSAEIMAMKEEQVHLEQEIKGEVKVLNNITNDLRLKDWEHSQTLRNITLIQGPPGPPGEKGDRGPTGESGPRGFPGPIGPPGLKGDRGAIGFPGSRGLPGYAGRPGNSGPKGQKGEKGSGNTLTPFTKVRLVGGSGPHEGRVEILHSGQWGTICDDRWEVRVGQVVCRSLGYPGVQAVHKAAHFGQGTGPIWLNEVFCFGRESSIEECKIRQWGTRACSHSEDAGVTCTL


Legend:
[1] = molecular target: T1, Ox-LDL binding to His9-hMSR1; experiment: Competition sandwich ELISA, Ox-LDL; conditions: anti-MSR1 antibody 500 nM, Ox-LDL 10 nM
Experimental: (§1) The ability of anti-MSR1 antibodies disclosed herein to block the binding of various ligands to human MSR1 was measured using three competition sandwich ELISA assays. The ligands used in the assays were: (1) acetylated LDL (Ac-LDL), (2) oxidized LDL (Ox-LDL), and (3) advanced glycation end-products of bovine serum albumin (AGE-BSA).
(§2) Anti-MSR1 antibodies or isotype control antibodies were serially diluted as appropriate for each tested ligand and added in duplicate for each serial dilution set to microtiter plates coated with His9-hMSR1. Buffer alone was also added to wells on each coat. […] This assay was conducted in four different assay runs.
(§3) Data analysis was performed using a sigmoidal dose-response model within Prism™ software (GraphPad). Percent blockade at maximum concentration of the antibody tested in each assay was calculated as an indicator of the ability of the antibodies to block the binding of Ac-LDL, Ox-LDL or biot-AGE-BSA to His9-hMSR1 on the plate relative to the baseline of the assay. In the calculation, binding signal of the same concentrations of Ac-LDL, Ox-LDL, or biot-AGE-BSA used for the assays in the absence of antibody was referenced as 100% binding or 0% blocking, while the baseline of the assay, defined as binding signal of the sample of buffer without MSR1 ligands or antibody, was referenced as 0% binding or 100% blocking. The maximum percent blockade at the highest concentration of antibody tested in each assay are reported for all antibodies.

[2] = molecular target: T2, Ac-LDL binding to His9-hMSR1; experiment: Competition sandwich ELISA, Ac-LDL; conditions: anti-MSR1 antibody 100 nM, 50 pM Ac-LDL
Experimental: as §1, §2, §3

[3] = molecular target: T3, biot-AGE-BSA binding to His9-hMSR1; experiment: Competition sandwich ELISA, biot-AGE-BSA; conditions: anti-MSR1 antibody 300 nM, 400 pM biot-AGE-BSA
Experimental: as §1
For the assay, recombinant monomeric human MSR1 protein comprised of a portion of the human MSR1 extracellular domain expressed with a N-terminal 9-Histidine tag (SEQ ID NO: 688) (His9-hMSR1; R&D Systems, Cat #2708-MS) was coated at a concentration of […] in PBS on a 96-well microtiter plate overnight at 4° C. for use in competition ELISA assays with Ac-LDL, Ox-LDL, or biotinylated-AGE-BSA (“biot-AGE-BSA”). […] Anti-MSR1 antibodies or isotype control antibodies were serially diluted as appropriate for each tested ligand and added in duplicate for each serial dilution set to microtiter plates coated with His9-hMSR1. Buffer alone was also added to wells on each coat. After 1 hour incubation at room temperature, without wash, a final constant concentration of 50 pM Ac-LDL (Life Technologies/ThermoFisher Scientific, Cat #L-35354), 5 nM or 10 nM Ox-LDL (Alfa Aesar, Cat #J65591), or 400 pM biot-AGE-BSA (R&D Systems, Cat #BT4127) were added to plates with His9-hMSR1, and the plates were incubated for an additional 1 hour at room temperature. (Concentrations of Ac-LDL, Ox-LDL and biot-AGE-BSA for antibody inhibition assays were selected from the approximate midway point within the linear portion of individual binding curves of Ac-LDL, Ox-LDL or biot-AGE-BSA to plate-coated His9-hMSR1.) Wells were washed, and plate-bound Ac-LDL or Ox-LDL were detected with anti-LDL rabbit antibody (Alfa Aesar, Cat #J64398) in combination with anti-rabbit IgG (H+L) specific donkey polyclonal antibodies conjugated with horseradish peroxidase (HRP) (JacksonImmunoResearch, Cat #711-035-152) and biot-AGE-BSA was detected with a streptavidin-HRP (ThermoFisher Scientific, Cat #N200). Plates were developed using TMB substrate solution (BD Biosciences, Cat #51-2606KC & Cat #51-2607KC) according to manufacturer's recommendation and absorbance at 450 nm was measured on a Victor™ Multilabel Plate Reader (PerkinElmer™). This assay was conducted in four different assay runs.
as §3, with “antibodies. Negative percent blockade numbers reflected higher MSR1 ligands binding to plate coated His9-hMSR1 in the presence of antibodies.” for “antibodies.”

His9-hMSR1 = molecular target: T4, His9-hMSR1; experiment: Cross-competition between anti-MSR1 antibodies (OCTET bio-layer interferometry); assay type: binding; conditions: label = first mAb (mAb-1) on His9-hMSR1 captured with anti-Penta-His Octet biosensors; value = competing mAb-2
Experimental: Binding competition between different anti-MSR1 antibodies was assessed using a real time, label-free bio-layer interferometry assay on an OCTET® HTX biosensor platform (Pall FortéBio Corp., Menlo Park, Calif.). The experiment was performed at 25° C. in 10 mM HEPES, 150 mM NaCl, 3 mM EDTA, 0.05% v/v Surfactant Tween-20, and 1 mg/mL BSA, pH 7.4 (HBS-EBT) buffer with the plate shaking at the speed of 1000 rpm.
To assess whether different antibodies are able to compete with one another for binding to their respective epitopes on the recombinant human MSR1 extracellular domain expressed with a N-terminal nonahistidine tag (SEQ ID NO: 688) (His9-hMSR1; R&D Systems, Cat #2708-MS), around […] of His9-hMSR1 was first captured onto anti-Penta-His antibody coated OCTET® biosensor tips (“Penta-His” disclosed as SEQ ID NO: 690) (Pall FortéBio Corp., #18-5122) by submerging the biosensor tips for 45 seconds into wells containing a […] solution of His9-hMSR1. The antigen-captured biosensor tips were then saturated with a first anti-MSR1 monoclonal antibody (subsequently referred to as “mAb-1”) by immersion into wells containing a […] solution of mAb-1 for 4 minutes. The biosensor tips were then submerged into wells containing a […] solution of a second anti-MSR1 monoclonal antibody (subsequently referred to as “mAb-2”) for 4 minutes. All of the biosensor tips were washed in HBS-EBT buffer in between each step of the experiment. The real-time binding response was monitored during the course of the experiment and the binding response at the end of each step was recorded. […] Table 17 explicitly defines the relationships of antibodies competing in both directions, independent of the order of binding.

[4] = molecular target: T5, MSR1-mediated DiI-OxLDL uptake in HEK293.Myc.hMSR1 cells; experiment: Ligand uptake assay, DiI-OxLDL; assay type: cell-based
Experimental: The resulting cell line, referred to here as “HEK293.Myc.hMSR1”, was selected and maintained in DMEM containing 10% FBS, NEAA, penicillin/streptomycin, L-glutamine, and 100 μg/mL hygromycin.
After 30 minutes, either oxidized or acetylated low-density lipoprotein (LDL) labeled with 1,1′ dioctadecyl-3,3,3′,3′-tetramethylindocarbocyanine perchlorate (referred to as “DiI-OxLDL” or “DiI-AcLDL,” respectively) was added to the cells at a constant concentration of 10 μg/mL. […] Results were analyzed using nonlinear regression (4-parameter logistics) with the Prism 7 program to obtain EC50 and IC50 values. The percentage of inhibition was calculated with the Relative Fluorescent Unit (RFU) values by using the following equation: […]
In the equation, “RFUBaseline” is the fluorescence value from the cells treated with 10 μg/mL ligand without antibodies, “RFUInhibition” is the minimum fluorescence value with for a particular antibody with 10 μg/mL ligand, and “RFUBackground” is the fluorescence value from cells without any ligand or antibodies.

Row | % Blocking of Ox-LDL binding to His9-hMSR1 [1] | % Blocking of Ac-LDL binding to His9-hMSR1 [2] | % Blocking of biot-AGE-BSA binding to His9-hMSR1 [3] | mAb-2 antibodies which Compete with mAb-1 (His9-hMSR1) | inhibition of DiI-OxLDL uptake (in words) [4] | IC50, Dil-Oxidized LDL ([4]; 10 μg/mL DiI-OxLDL) | % Inhibition, Dil-Oxidized LDL ([4]; maximum inhibition of uptake, 10 μg/mL DiI-OxLDL) | Molecule
1 | 100% | 105% | 99% | Data Inconclusive** | – | – | – | H1H21227N: "Three anti-MSR1 antibodies ... (21227N, 21231N, 21234N) were produced with the original human Fcγ portion" (antibody, V domains shown) VH: QVQLVQSGAEVKKPGASVKVSCKVSGYTLTELSIHWVRQVPGKGLEWMGGFDPEEGETIFAQEFRDRVTLTEDTSPDTAYMELSSLKSEDAAVYYCTTPRYCNNGICYDYWGQGTLVTVSS VL: DIQMTQSPSSLSASVGDRVTITCRASQSISNYLNWYQQKPGKAPKLLIYTASSLQSGVPSRFSGSGSGTDFTLTISSLQTEDFATYYCQQSYSNFPITFGQGTRLEIKR
2 | – | – | – | Data Inconclusive** | no inhibition of DiI-OxLDL uptake | no inhibition | no inhibition | H1H27729P-N297Q: anti-MSR1 antibody; "Antibody H1H27729P-N297Q showed no inhibition of DiI-OxLDL uptake" (antibody, V domains shown) VH: QVQLVESGGGLVKPGGSLRLSCAASGFIFSDYYMSWIRQAPGKGLEWVSYISSSGTTIYGDSVKGRFTMSRDNAKNSLYLQMNSLRAEDTAVYYCARNYALFDYWGQGTLVTVSS VL: DIQMTQSPSSLSASVGDRVTITCQASQDISKYLNWYQQKPGKAPKLLIYYTSNLETGVPSRFSGSGSGTDFTFTISSLQPEDIATYYCHQSDYLPFTFGPGTKVDIKR
